Test results as given in IntAct's records for PubMed 16266891.

Each substance was assayed against pim1_human PIM1 (UniProt P11309).

Substance | effect of a mutation on the interaction
Small ribosomal subunit protein eS19 (Homo sapiens) (from UniProt P39019) R56Q | increasing interaction
Small ribosomal subunit protein eS19 (Homo sapiens) (from UniProt P39019) R62W | increasing interaction
Small ribosomal subunit protein eS19 (Homo sapiens) (from UniProt P39019) R101H | decreasing interaction
